Data: patent US7393837B2, “Inhibition of PEX in the treatment of metabolic bone diseases” (McGill University, priority 1998, dated 2008)

Assays:
recombinant human PEX = target: T1, recombinant human PEX (Homo sapiens, UniProt P78562); assay: Membrane-bound endopeptidase assay, hydrolysis by PEX-expressing COS cell membranes (HPLC); assay type: biochemical; conditions: for hydrolysis of the peptide in the presence of PEX: 10 μg peptide, COS cell membranes expressing PEX, HPLC at 214 nm, FIG. 8
T1 construct: excising the full length PEX cDNA that was then inserted into pcDNA3 vector; expressed in transfected cells; host or cells: COS-7 cells, transient transfection with pPEX (pcDNA3); 100,000 x g membrane fraction
T1 sequence (P78562 1-749): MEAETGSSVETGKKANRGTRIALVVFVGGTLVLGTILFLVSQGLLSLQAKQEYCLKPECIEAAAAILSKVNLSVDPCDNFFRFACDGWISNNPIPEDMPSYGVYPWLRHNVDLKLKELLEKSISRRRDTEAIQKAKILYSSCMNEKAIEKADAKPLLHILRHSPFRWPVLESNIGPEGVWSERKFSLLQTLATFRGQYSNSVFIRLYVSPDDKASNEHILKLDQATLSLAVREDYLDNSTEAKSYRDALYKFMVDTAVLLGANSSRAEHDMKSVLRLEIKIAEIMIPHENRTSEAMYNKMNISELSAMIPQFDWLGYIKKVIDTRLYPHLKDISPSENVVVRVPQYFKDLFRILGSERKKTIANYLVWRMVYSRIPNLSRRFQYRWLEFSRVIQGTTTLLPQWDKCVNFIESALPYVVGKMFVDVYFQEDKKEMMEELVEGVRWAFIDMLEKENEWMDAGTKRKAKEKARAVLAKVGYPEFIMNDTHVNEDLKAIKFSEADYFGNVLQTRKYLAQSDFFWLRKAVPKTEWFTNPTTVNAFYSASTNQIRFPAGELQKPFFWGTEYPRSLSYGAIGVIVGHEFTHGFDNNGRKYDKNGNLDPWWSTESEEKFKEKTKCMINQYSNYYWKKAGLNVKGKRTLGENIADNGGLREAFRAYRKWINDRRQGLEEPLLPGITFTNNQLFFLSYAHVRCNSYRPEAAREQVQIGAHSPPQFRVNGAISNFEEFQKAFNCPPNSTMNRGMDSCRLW
Protocol: (§1) COS-7 cells transiently transfected with pcDNA3 vector alone, with vector containing human NEP cDNA (generous gift of P. Crine, Université de Montréal), or with pPEX plasmid, were washed and scraped in PBS. Following brief centrifugation, the cell pellets were resuspended in 50 mM Tris-HCl, pH 7.4 and disrupted by sonication. Homogenates were fractionated by sequential centrifugation at 1,000×g for 10 min and then at 100,000×g for 60 min. The final precipitate was washed with 50 mM Tris-HCl, pH 7.4, resuspended in the same buffer, and assayed for endopeptidase activity. The protein concentration in membrane fractions was determined by the method of Bradford with bovine serum albumin as standard.
[D-Ala^2,Leu^5] enkephalin (500 μM) was incubated with COS cell membrane preparations (˜60 μg of protein) in 100 mM Tris-HCl, pH 7.0, at 37° C. for 30 min (final volume 30 μl). The reaction was terminated by the addition of 100 μl 0.1% TFA (v/v). Production of Tyr-D-Ala-Gly was monitored using reversed-phase HPLC (Bondpak C-18 reverse phase column, Waters) with a U.V. detector set at 214 nm. A linear solvent gradient of 0% B to 40% B in 60 min was used with a flow rate of 1.5 ml/min (mobile phase A=0.1% TFA (v/v); mobile phase B=80% acetonitrile/0.1% TFA). Tyr-D-Ala-Gly was identified by co-chromatography with marker synthetic peptide. For assessing PEX endopeptidase activity, 10 μg of PTH [1-38] and PTH [1-34] peptides (Peninsula Laboratories; Belmont, Calif.) were added to the membrane preparations. For HPLC analysis of hydrolysis products, a linear solvent gradient of 0% to 50% solution B was used at a rate of 1.5 ml/min. MALDI-TOF mass spectrometry was performed on specific peptide fragments.

recombinant human NEP = target: T2, recombinant human NEP (Homo sapiens, UniProt P08473); assay: Membrane-bound endopeptidase assay, hydrolysis by NEP-expressing COS cell membranes (HPLC); assay type: biochemical; conditions: 500 μM substrate, 37° C., 30 min; FIG. 7B
T2 construct: expressed in transfected cells; host or cells: COS-7 cells, transient transfection; 100,000 x g membrane fraction
Protocol: as §1
[D-Ala^2,Leu^5] enkephalin (500 μM) was incubated with COS cell membrane preparations (˜60 μg of protein) in 100 mM Tris-HCl, pH 7.0, at 37° C. for 30 min (final volume 30 μl). The reaction was terminated by the addition of 100 μl 0.1% TFA (v/v). Production of Tyr-D-Ala-Gly was monitored using reversed-phase HPLC (Bondpak C-18 reverse phase column, Waters) with a U.V. detector set at 214 nm. A linear solvent gradient of 0% B to 40% B in 60 min was used with a flow rate of 1.5 ml/min (mobile phase A=0.1% TFA (v/v); mobile phase B=80% acetonitrile/0.1% TFA). Tyr-D-Ala-Gly was identified by co-chromatography with marker synthetic peptide. […]

T2 sequence (P08473 whole entry): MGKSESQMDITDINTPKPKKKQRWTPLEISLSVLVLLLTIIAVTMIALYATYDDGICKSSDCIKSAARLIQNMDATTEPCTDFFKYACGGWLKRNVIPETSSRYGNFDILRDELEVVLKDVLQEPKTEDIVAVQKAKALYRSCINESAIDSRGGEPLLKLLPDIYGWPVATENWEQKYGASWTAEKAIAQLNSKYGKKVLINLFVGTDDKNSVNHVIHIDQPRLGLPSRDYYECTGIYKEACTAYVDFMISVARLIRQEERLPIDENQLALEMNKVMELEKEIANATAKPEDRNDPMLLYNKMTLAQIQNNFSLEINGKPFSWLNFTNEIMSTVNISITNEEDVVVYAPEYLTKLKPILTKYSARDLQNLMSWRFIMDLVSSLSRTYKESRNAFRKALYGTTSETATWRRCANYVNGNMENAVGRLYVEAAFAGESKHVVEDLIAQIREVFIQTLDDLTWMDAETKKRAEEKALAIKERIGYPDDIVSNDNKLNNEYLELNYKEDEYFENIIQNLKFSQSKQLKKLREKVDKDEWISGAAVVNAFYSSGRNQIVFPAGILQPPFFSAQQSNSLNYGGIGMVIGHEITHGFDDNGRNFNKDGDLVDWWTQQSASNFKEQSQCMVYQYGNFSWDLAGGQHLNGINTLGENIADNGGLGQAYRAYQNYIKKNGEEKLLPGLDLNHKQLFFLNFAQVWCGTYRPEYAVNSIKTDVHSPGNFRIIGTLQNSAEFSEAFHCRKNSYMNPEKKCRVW

Row | Substance | hydrolysis of the peptide in the presence of PEX (recombinant human PEX) | production of Tyr-D-Ala-Gly from the substrate, PEX membranes (recombinant human PEX; 500 μM substrate, 37° C., 30 min, FIG. 7C) | production of Tyr-D-Ala-Gly from the substrate, NEP membranes (recombinant human NEP)
1 | PTH [1-38]: human parathyroid hormone peptide 1-38 (Peninsula Laboratories), used as PEX substrate (SVSEIQLMHNLGKHLNSMERVEWLRKKLQDVHNFVALG) | hydrolyzed | – | –
2 | [D-Ala^2, Leu^5] enkephalin | – | evident only in NEP-expressing membrane preparations | evident only in NEP-expressing membrane preparations
3 | PTH [1-34]: human parathyroid hormone peptide 1-34 (Peninsula Laboratories), used as PEX substrate | hydrolyzed | – | –
